In patent US20180334496A1 (KODIAK SCIENCES, published 2018):

Target: T1, human Complement Factor D (CFD), purified from human serum (human, UniProt P00746 26-253)
T1 construct: serum purified (CompTech A136); also called serum purified CFD; hCFD-Comptech
Assay: SPR MX96, mAbs amine-coupled, CFD injected

T1 sequence (P00746 26-253): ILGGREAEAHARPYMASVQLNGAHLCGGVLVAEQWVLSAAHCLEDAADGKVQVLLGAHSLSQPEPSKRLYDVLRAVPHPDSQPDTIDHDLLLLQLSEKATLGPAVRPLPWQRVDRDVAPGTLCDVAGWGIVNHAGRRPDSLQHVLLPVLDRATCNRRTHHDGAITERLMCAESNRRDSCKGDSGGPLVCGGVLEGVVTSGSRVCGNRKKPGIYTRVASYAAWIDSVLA

Binder	Kd [nM]
KCD224 (antibody, V domains shown) VH: QVQLKESGPGLVAPSQSLSITCTVSGFSLTSYGVDWIRQSPGKGLEWLGVIWGVGSTNYNSALKSRLSISKDNSKSQVFLKMNSLQTDDTAMYYCARSYDGSYWYFDVWGTGTTVTVSS VL: DIQMTQTTSSLSASLGDRVTISCRASQVISNYLNWYQQKPDGTVKLLIYYTSRLHSGVPSRFSGSGSGTDYSLTISNLEPEDIATYYCQQYSKLPYTFGSGTKLEIK	1.17
KCD075 (antibody, V domains shown) VH: QVQLLQPGAELVRPGTSVKLSCKASGYTFSNYWINWVKQRPGQGLEWIGNIYPSDSSINYNQKFKDKATLTVDKSSTTAYMQLSSPTSEDSAVYYCTGTDWYFDVWGAGTTVTVSS VL: DIQMTQTTSSLSASLGDRVTISCSGGQGISNYLNWYQQKPDGTFKLLIYYTSTLHSGVPSRFSGSGSGTDYSLTISNLEPEDVATYYCQQYSKLPYTFGGGTKLEIK	3.75
KCD210 (antibody, V domains shown) VH: EVQLQQSGPVLVKPGASVTMSCKASGYTFTEYYMNWVKQSHGKSLDWIGVINPYSGGTSYKQKFKDKATLTVDKSSSTAYMELNGLTSEDSAVYFCVRGGLRRNYFDYWGQGTTLTVSS VL: EIVLTQSPALMTASPGEKVTITCSVSSSISSTNLHWYQQKSGTSPKPWIFGTSNLASGVPVRFSGSGSGTSYSLTISNMEAEDAATYYCQQWNSYPFTFGTGTKLEIK	3.52
KCD110 (antibody, V domains shown) VH: EVQLQQSGPELVKPGASVKISCKASGYSFTGYYMHWVKQSHGNILDWIGYIDPDNGVSSKNQKFTGKATVTADKSSSTAYMELRSLTSEDSAVYYCAGYYGSSWYWYFDVWGTGTTVTVSS VL: QIVLSQSPAILSASPGEKVTMTCRASSSVSYMHWYQQKPGSSPKPWIYATSNLASGVPARFSGSGSGTSYSLTISRVEAEDAATYYCQQWSSNPYTFGGGTKLEIK	3.71
KCD131 (antibody, V domains shown) VH: QVQLQQSGPELVKPGASVKISCKASAYTFTDYYINWVKQRPGQGPEWIGWIFPGSNSTYSNEKFEVKATLTVDESSSTAYMLLSSLTSEDSAVYFCARLGYFGSSYHALDYWGQGTSVTVSS VL: DIQMTQSPASLSVSVGETVTITCRASENIYSHLAWFQQKQGKSPRLLVYSATNLPDGVPSRFSGSGSGTQYSLKINILQSEDFGSYYCQHFWGTPWTFGGGTKLEIK	0.14
KCD066 (antibody, V domains shown) VH: QVQLQQSAAELARPGASVKMSCKASGYTFTDYTMHWVKQRPGQGLEWIGYINPSGGYTDYNQKFKDKTALTADKSSSTAYMQLSSLTSEDSAVYYCARRRDYWFAYWGQGTLVTVSA VL: DIVMSQSPSSLAVSVGEKVTMSCKSSQSLLYSGNQKNYLAWYQQKPGQSPKLLIYWASTRESGVPDRFTGSGSGTDFTLTISSVKAEDLAVYYCHQYYSYLTFGAGTKLELK	2.88
KCD136 (antibody, V domains shown) VH: EVQLQQSVAELVRPGASVKLSCSASGFNIKNTYMHWVNQRPEQGLEWIGRIDPANGITKYAPNFQGKATITADTSSNTAYLQLSNLTSEDTAIYYCTRAMDYWGQGTSVTVSS VL: QIVLTQSPAIMSASPGEKVTMTCSASSSVSYMYWYQQKPGSSPRLLIYDISNLASGVPVRFSGSGSGTSYSLTISRMEAEDAATYYCQQWDTYPWTFGGGTKLEIK	4.46
KCD212 (antibody, V domains shown) VH: EVHLVESGGDLVKPGGSLKLSCAASGFTFSRYGMSWVRQTPDKRLEWVATISSAGSYTYYPDSVKGRFTISRDNAKNTLFLQMSSLKSEDTAMYYCARPLNYYGTSSFDYWGQGTTLTVSS VL: QIVLTQSPAIMSASPGEKVTMTCRASSSVSSTYLHWYQQKPGSSPKLWIYSTSNLASGVPPRFSGSGSGTSYSLTISSVEAEDAATYYCQQYDSSPNTFGAGTKLELK	0.469
KCD139 (antibody, V domains shown) VH: EVQLQQSGAELVRPGSSVKMSCKTSGYTFTSYGINWVKQRPGQGLEWIGYIYIANGYTENNEKFKGKAKLTSDISSSTAYMQLSSLTSEDSAIYFCARRFDYAGALDYWGQGTSVTVSS VL: DIVLTQSPASLAVSLGQRATISCRASESVDSYGNSFMHWYQQKPGQPPKLLIHRASNLESGIPARFSGSGSRTDFTLTINPVEADDVAIYYCQQTNDDPYTFGGGTNLEIK	5.28
